Results taken from the Human Domainome abundance scans (Beltran et al. 2025).
± gives the uncertainty stated by the source.

B1: Myocardin-related transcription factor A, residues 341 to 383; numbered along this chain, Q969V6 (parent)
chain: GALPANLDDMKVAELKQELKLRSLPVSGTKTELIERLRAYQDQ

Variants of: B1
Assay: abundance fitness (aPCA) (normalised: wild type 0, dead -1); higher = more abundant; growth selection in yeast, the domain comes from the species named
Details: Homo sapiens

Variant | abundance fitness
R22D | -0.327 ± 0.22
R22K | -0.318 ± 0.14
R22C | -0.178 ± 0.12
R22V | -0.277 ± 0.094
R22F | -0.816 ± 0.41
Y40D | 0.308 ± 0.074
Y40L | -0.062 ± 0.077
Y40V | 0.179 ± 0.062
Y40K | -0.103 ± 0.12
Y40N | 0.127 ± 0.075
Y40P | 0.192 ± 0.1
Y40H | 0.228 ± 0.15
Y40Q | -0.189 ± 0.23
Y40E | 0.179 ± 0.11
Y40R | 0.042 ± 0.061
Y40T | 0.08 ± 0.11
Y40G | 0.202 ± 0.065
Y40C | 0.127 ± 0.082
Y40A | 0.247 ± 0.064
Y40M | 0.02 ± 0.087
Y40S | 0.246 ± 0.074
Y40W | 0.178 ± 0.073
Y40F | 0.12 ± 0.062
K20H | -0.342 ± 0.18

Variant | abundance fitness
K20N | -0.137 ± 0.12
K20R | 0.011 ± 0.06
K20V | -0.041 ± 0.072
K20Y | 0.657 ± 0.28
K20M | 0.044 ± 0.098
K20T | -0.145 ± 0.1
K20W | -0.372 ± 0.072
K20L | 0.002 ± 0.075
K20P | -0.453 ± 0.091
K20S | 0.05 ± 0.075
K20F | -0.153 ± 0.097
L33T | -0.283 ± 0.098
L33M | 0.046 ± 0.32
L33A | -0.261 ± 0.26
L33N | 0.592 ± 0.39
L33V | -0.249 ± 0.081
L33G | -0.224 ± 0.082
L33S | -0.067 ± 0.094
L33P | -0.403 ± 0.17
L33K | -0.315 ± 0.095
L33R | -0.617 ± 0.07
L33Q | -0.128 ± 0.091
R36V | -0.339 ± 0.061
R36L | -0.416 ± 0.086

Variant | abundance fitness
R36G | -0.188 ± 0.065
R36W | -0.73 ± 0.08
R36M | -0.395 ± 0.21
R36Q | -0.201 ± 0.072
R36A | -0.128 ± 0.066
R36P | -0.066 ± 0.1
R36K | -0.234 ± 0.1
R36C | -0.128 ± 0.12
R36S | -0.291 ± 0.075
R36I | -0.728 ± 0.27
R36T | -0.113 ± 0.082
R36N | -0.356 ± 0.12
R36E | -0.529 ± 0.12
I34D | -0.546 ± 0.12
I34A | -0.187 ± 0.081
I34Y | 0.017 ± 0.12
I34K | -0.031 ± 0.071
I34H | -0.186 ± 0.12
I34T | -0.151 ± 0.1
I34L | -0.146 ± 0.086
I34Q | 0.116 ± 0.15
I34W | -0.363 ± 0.077
I34E | -0.151 ± 0.18
I34C | -0.139 ± 0.079

Variant | abundance fitness
I34V | -0.21 ± 0.079
I34R | -0.146 ± 0.063
I34G | -0.305 ± 0.074
I34M | -0.144 ± 0.089
E32Y | -0.669 ± 0.12
E32L | -0.472 ± 0.081
E32N | -0.357 ± 0.43
E32V | -0.093 ± 0.069
E32K | -0.198 ± 0.097
E32Q | -0.038 ± 0.086
E32T | -0.143 ± 0.12
E32G | -0.606 ± 0.071
E32R | -0.319 ± 0.055
E32C | -0.17 ± 0.072
E32P | -0.533 ± 0.1
E32M | -0.239 ± 0.16
E32I | -0.149 ± 0.12
E32H | -0.375 ± 0.14
E32A | -0.053 ± 0.063
E32W | -1.15 ± 0.14
T29L | -0.376 ± 0.11
T29V | -0.26 ± 0.07
T29S | -0.084 ± 0.072
T29E | 0.009 ± 0.079

Variant | abundance fitness
T29M | -0.447 ± 0.081
T29H | -0.142 ± 0.17
T29W | -0.601 ± 0.12
T29D | -0.147 ± 0.087
T29Q | 0.157 ± 0.14
T29C | -0.198 ± 0.072
T29Y | -0.44 ± 0.21
T29I | -0.362 ± 0.11
T29R | -0.196 ± 0.069
T29K | -0.092 ± 0.093
S23D | 0.073 ± 0.072
S23Q | -0.101 ± 0.083
S23L | -0.018 ± 0.071
S23M | -0.162 ± 0.095
S23I | -0.307 ± 0.084
S23P | -0.834 ± 0.28
S23R | -0.036 ± 0.061
S23N | 0.008 ± 0.071
S23A | 0.018 ± 0.063
S23K | 0.142 ± 0.15
S23V | -0.22 ± 0.072
S23E | 0.092 ± 0.084
S23H | 0.176 ± 0.11
S23C | 0.052 ± 0.11

Variant | abundance fitness
S23Y | 0.038 ± 0.2
S23G | 0.291 ± 0.063
S23W | -0.256 ± 0.083
S23F | -0.205 ± 0.14
V26R | -0.129 ± 0.067
V26Y | -0.031 ± 0.23
V26H | -0.265 ± 0.15
V26K | -0.195 ± 0.14
V26P | 0.191 ± 0.084
V26C | -0.223 ± 0.18
V26G | -0.038 ± 0.12
V26W | -0.538 ± 0.24
V26S | -0.035 ± 0.071
V26A | 0.18 ± 0.082
V26L | 0.229 ± 0.071
V26N | -0.466 ± 0.17
V26M | -0.032 ± 0.074
V26F | -0.033 ± 0.12
V26Q | 0.155 ± 0.096
V26E | 0.168 ± 0.082
S27D | 0.11 ± 0.097
S27V | -0.251 ± 0.11
S27Q | -0.424 ± 0.26
S27L | -0.376 ± 0.16

Variant | abundance fitness
S27A | 0.181 ± 0.14
S27K | -0.196 ± 0.15
S27E | 0.043 ± 0.1
S27W | -0.115 ± 0.091
S27M | -0.286 ± 0.11
S27R | -0.186 ± 0.064
S27G | -0.012 ± 0.075
S27Y | -0.136 ± 0.21
S27T | -0.196 ± 0.23
S27C | -0.201 ± 0.1
S27P | -0.08 ± 0.19
A39P | 0.168 ± 0.096
A39Y | 0.129 ± 0.075
A39S | 0.221 ± 0.073
A39V | 0.187 ± 0.06
A39N | 0.259 ± 0.088
A39W | 0.074 ± 0.076
A39F | -0.127 ± 0.11
A39Q | 0.205 ± 0.086
A39I | -0.034 ± 0.11
A39L | 0.168 ± 0.077
A39E | 0.411 ± 0.11
A39K | 0.284 ± 0.064
